The values that follow come from publication PMC4319933, “Insights into the Cellular Function of YhdE, a Nucleotide Pyrophosphatase from Escherichia coli” (PLoS ONE, 2015).

Substrate in series [1]: Cc1cn([C@H]2C[C@H](O)[C@@H](COP(=O)(O)OP(=O)(O)OP(=O)(O)O)O2)c(=O)[nH]c1=O
The experiment in a line: purified protein. It is filed as biochemical, Escherichia coli. The following applies: 2 mM Mn2+, 20 mM HEPES pH 7.0, 25 °C, 1.5 µM enzyme, apparent Km, Hill coefficient 2.2 (positive cooperativity).

Substrate in series [2]: O=c1ccn([C@@H]2O[C@H](COP(=O)(O)OP(=O)(O)OP(=O)(O)O)[C@@H](O)[C@H]2O)c(=O)[nH]1
Briefly: purified protein. It is filed as biochemical, Escherichia coli. To be noted: 2 mM Mn2+, 20 mM HEPES pH 7.0, 25 °C, 1.5 µM enzyme, apparent Km, Hill coefficient 1.9 (positive cooperativity).

Series [3] concerns the molecule itself. Briefly: SEC; size-exclusion chromatography after Ni2+ chelation; Bis-Tris buffer, pH 6.75; YhdE eluted at approximately 81 mL, approximately 45 kDa. (In general: In gel filtration, larger molecules generally elute earlier.)

As usually defined, the Km is the concentration of substrate that gives half-maximal velocity. As usually defined, the Vmax is the rate approached at saturating substrate. Usually kcat stands for the maximal rate divided by the concentration of active sites. For orientation: kcat/Km means the second-order rate constant that governs catalysis at low substrate concentration. The stoichiometry N is a count of units in the complex or per binding partner.

B1: YhdE (Escherichia coli K-12) (protein)
chain: TSLYLASGSPRRQELLAQLGVTFERIVTGIEEQRQPQESAQQYVVRLAREKARAGVAQTAKDLPVLGADTIVILNGEVLEKPRDAEHAAQMLRKLSGQTHQVMTAVALADSQHILDCLVVTDVTFRTLTDEDIAGYVASDEPLDKAGAYGIQGLGGCFVRKINGSYHAVVGLPLVETYELLSNFNALREKRDKHDG
notes: dimer in solution ~45 kDa, monomer ~22 kDa; PDB entries are of the E33A mutant
Take B1: in “purified protein [1]”, the Km was determined as 90 µM, the Vmax was 3600 µM/min, the kcat turned out to be 43 s⁻¹ and the kcat/Km stood at 503000 M⁻¹ s⁻¹. Further, in the series “purified protein [2]”, the Km was 500 µM, the Vmax worked out at 8400 µM/min, the kcat was determined as 95 s⁻¹ and the kcat/Km was 191000 M⁻¹ s⁻¹.

B2: YhdE, a Maf-like protein in Escherichia coli (nucleotide pyrophosphatase) (enzyme, UniProt P25536 1-197, looked up)
chain: MTSLYLASGSPRRQELLAQLGVTFERIVTGIEEQRQPQESAQQYVVRLAREKARAGVAQTAKDLPVLGADTIVILNGEVLEKPRDAEHAAQMLRKLSGQTHQVMTAVALADSQHILDCLVVTDVTFRTLTDEDIAGYVASDEPLDKAGAYGIQGLGGCFVRKINGSYHAVVGLPLVETYELLSNFNALREKRDKHDG
notes: YhdE, Maf-like protein of Escherichia coli; the open reading frame of yhdE cloned into pFO4 (BamHI/EcoRI); also called recombinant YhdE; source: E. coli BL21(DE3), purified (Ni2+ chelation, size-exclusion chromatography)
Take B2: the “stoichiometry N” value in series [3] was determined as 2.
